Laboratory results from publication PMC9998502, “Functional selectivity of EM-2 analogs at the mu-opioid receptor” (Frontiers in Pharmacology, 2023).
Non-standard residues stand in square brackets, D forms with d. No end group written: not given here. Dmt = Cc1cc(O)cc(C)c1C[C@H](N)C(=O)O

B1: EM-2 analog 1 (Dmt-Pro-Phe-Phe-NH2) (peptide)
peptide: [Dmt]PFF-NH2
B2: endomorphin-2 (Tyr-Pro-Phe-Phe-NH2) (peptide)
peptide: YPFF-NH2

How the values were obtained:
[1] = target: human mu opioid receptor (human) (UniProt P35372); assay: radioligand binding; displacement of [3H]DAMGO from commercial membranes of CHO cells transfected with the human recombinant mu opioid receptor; Ki, mean ± SEM, n ≥ 3
Chain of human mu opioid receptor (human) (P35372 whole entry): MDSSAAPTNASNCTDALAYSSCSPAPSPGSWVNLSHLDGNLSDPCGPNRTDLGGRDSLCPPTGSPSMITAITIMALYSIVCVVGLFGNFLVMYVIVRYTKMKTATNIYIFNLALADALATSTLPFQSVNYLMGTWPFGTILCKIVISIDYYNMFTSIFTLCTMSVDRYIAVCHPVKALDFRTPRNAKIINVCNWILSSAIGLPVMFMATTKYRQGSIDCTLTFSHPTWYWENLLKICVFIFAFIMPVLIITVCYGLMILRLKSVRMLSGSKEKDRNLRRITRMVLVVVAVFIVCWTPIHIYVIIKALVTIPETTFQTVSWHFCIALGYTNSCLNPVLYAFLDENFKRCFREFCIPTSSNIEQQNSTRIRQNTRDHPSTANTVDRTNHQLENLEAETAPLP

[2] = target: human mu opioid receptor (human) (UniProt P35372)

Row | Binder | Ki [1] [nM] | calcium mobilization, CHO cells with human mu receptor and Gαqi5: α (Emax ratio to the standard agonist) [2]
1 | B1 | 0.54 | 0.85
2 | B2 | 1.97 | 1
